Measurements published in US10946092 (BEIJING MABWORKS BIOTECH, dated 2021).

What was measured:
[1] = target: T1, monkey (rhesus) LAG3 expressed on HEK293A cells (monkey (rhesus), UniProt A0A5F8A874 23-533); assay: FACS on HEK293A/rh LAG3 cells
T1 construct: whole, on cells; also called HEK293A/rh LAG3
T1 sequence: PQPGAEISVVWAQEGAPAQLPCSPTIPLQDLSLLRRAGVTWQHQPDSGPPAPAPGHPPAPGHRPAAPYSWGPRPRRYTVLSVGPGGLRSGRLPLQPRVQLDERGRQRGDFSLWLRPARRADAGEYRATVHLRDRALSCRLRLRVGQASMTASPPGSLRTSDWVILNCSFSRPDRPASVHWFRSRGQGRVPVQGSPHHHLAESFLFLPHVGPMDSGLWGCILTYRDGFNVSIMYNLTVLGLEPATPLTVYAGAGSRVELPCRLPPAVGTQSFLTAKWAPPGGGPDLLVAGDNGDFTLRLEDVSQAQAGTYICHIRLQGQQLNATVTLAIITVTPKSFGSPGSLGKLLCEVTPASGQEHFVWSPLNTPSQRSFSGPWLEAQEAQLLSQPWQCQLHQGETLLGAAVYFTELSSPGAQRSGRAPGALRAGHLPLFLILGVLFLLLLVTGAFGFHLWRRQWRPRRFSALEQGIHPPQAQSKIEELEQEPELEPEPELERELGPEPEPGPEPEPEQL
Description: Briefly, 10^5 HEK293A cells in 50 μl PBS buffers were seeded into each well of the 96-well plates and then added with 50 μl of serially diluted anti-LAG3 antibodies (5-fold dilution, starting from 40 μg/ml). After incubated at 4° C. for 1 hour, plates were washed 3 times with PBST. Then, an APC coupled Goat Anti-Mouse IgG (BioLegend, US, Cat #: 405308) diluted 500× was added to the plates. After incubation at 4° C. for 1 hour, the plates were washed with PBS for 3 times and then cell fluorescence was monitored using a FACS machine (BD).

[2] = target: T2, recombinant monkey LAG3(ECD)-hFc (ACRO, Cat #: LA3-05252) (monkey (rhesus), UniProt A0A5F8A874 23-450); assay: ELISA, coated monkey LAG3(ECD)-hFc
T2 construct: Bought protein; also called rhesus LAG3(ECD)-hFc; rh LAG3(ECD)-hFc; not shown: human Fc (hFc) and any linker
T2 sequence: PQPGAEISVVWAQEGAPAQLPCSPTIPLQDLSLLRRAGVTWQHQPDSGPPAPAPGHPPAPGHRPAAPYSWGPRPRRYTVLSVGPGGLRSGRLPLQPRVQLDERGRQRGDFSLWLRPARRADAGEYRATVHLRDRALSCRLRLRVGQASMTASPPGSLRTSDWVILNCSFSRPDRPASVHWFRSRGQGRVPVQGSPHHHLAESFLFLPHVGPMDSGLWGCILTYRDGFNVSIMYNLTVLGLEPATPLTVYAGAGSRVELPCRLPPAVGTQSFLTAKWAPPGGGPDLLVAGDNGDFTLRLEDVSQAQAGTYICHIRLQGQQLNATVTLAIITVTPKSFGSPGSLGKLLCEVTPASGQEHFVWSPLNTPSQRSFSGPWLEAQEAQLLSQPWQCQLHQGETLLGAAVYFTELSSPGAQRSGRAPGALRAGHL
Description: Species-cross-reactivity of the 12 LAG3 mAbs to monkey or mouse LAG3 was further tested by direct ELISA. Briefly, 50 µl of 500 ng/ml monkey LAG3(ECD)-hFc (ACRO, CN, Cat #: LA3-05252) or mouse LAG3-his (Sino Biological, CN, Cat #:53069-M08H) was coated on 96-well ELISA plates followed by incubation with 100 µl of serially diluted anti-LAG3 antibodies (starting from 40 µg/ml). Goat anti-mouse IgG conjugated with HRP (Sigma, US, Cat #: A9309-1 ml) was added then.

[3] = target: T3, hLAG-3-hIg fusion protein (human LAG-3 extracellular domain fused to human Fc); Sino Biological, Cat #: … (human, UniProt P18627 23-450); assay: FACS blocking assay; antibody titrated against 10 µg/ml hLAG-3-hIg binding to MHC II on Daudi cells
T3 construct: extracellular domain; Bought protein; also called LAG3 fusion protein; human LAG3(ECD)-hFc; not shown: human Fc
T3 sequence (looked up): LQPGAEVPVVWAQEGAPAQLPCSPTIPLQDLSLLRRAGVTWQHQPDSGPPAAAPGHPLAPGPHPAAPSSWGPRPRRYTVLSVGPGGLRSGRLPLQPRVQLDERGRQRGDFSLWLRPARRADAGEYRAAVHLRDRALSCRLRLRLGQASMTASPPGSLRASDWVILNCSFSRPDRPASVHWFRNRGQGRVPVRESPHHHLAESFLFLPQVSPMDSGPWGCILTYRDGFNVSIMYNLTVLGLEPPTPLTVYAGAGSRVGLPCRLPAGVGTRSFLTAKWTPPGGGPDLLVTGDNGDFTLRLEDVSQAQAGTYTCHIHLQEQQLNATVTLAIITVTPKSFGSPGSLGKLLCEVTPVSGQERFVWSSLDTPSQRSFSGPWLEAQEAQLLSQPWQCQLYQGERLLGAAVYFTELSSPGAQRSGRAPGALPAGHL
Description: The mixtures were then added and incubated with 2 ×10^5 Daudi cells in 100 μl PBS buffer at 4° C. for 30 minutes. The cells were pelleted (three minutes, 400×g), washed twice with 1×PBS buffer and repelleted, and added and incubated with a recombinant PE-labeled F(ab')2 anti-hIgG Fc (1:200, Life Technologies, USA, Cat #: H10104) at 4° C. for 30 minutes, and washed once with 1×PBS. Analysis of […] binding was carried out with the FACS flow cytometer (BD Bioscience).

B1: mouse anti-LAG3 monoclonal antibody 101F4 (antibody, V domains shown)
VH: EVQLEQSGAELVRPGASVTLSCKASGYTFTDYEMHWVKQTPVYGLEWMGAIDPETGGIVYNQRFKGKAILTADKSSSTAYMELRSLTSEDSAVYYCTGAGWGYWGQGTTLTVSS
VL: DIVITQSPSSMYASLGERVTITCKASQDINSYLSWFQQKPGKSPKTLIYRANRLLDGVPSRFSGSGSGQDYSLTISSLEFEDMGLYYCLQYDEFPFTFGSGTKLEIK
B1 was tested, and the EC50 [1] was 0.39 nM, the EC50 [2] was 2.3 nM and the EC50 [3] was 13 nM.

B2: mouse anti-LAG3 monoclonal antibody 134G10 (antibody, V domains shown)
VH: EVQLVESGGDLVKPGGSLKLSCAASGFTFSSFGMSWVRQTPDKRLEWVGIISSGGTYTFYPDILKGRFTISRDNAKNTLYLQMSSLKSEDTAMYYCARVYSDYDGRFDYWGQGTTLTVSS
VL: DIVMTQSPSSLSVSAGEKVTMNCKSSQSLLNSGNQKNYLAWYQQKPGQPPKLLIYGASTRESGVPDRFTGSGSGTDFTLTISSVQAEDLAVYYCQNDHSYPLTFGAGTKLELK
For B2, the EC50 [1] was 6.5 nM, the EC50 [2] was 0.23 nM and the EC50 [3] was 9.3 nM.
